Test results from US20220242939A1 (BIOARCTIC, published 2022).
Numbering of substitutions follows the chain as printed. Non-standard residues stand in square brackets, D forms with d. No end group written: not given here. Ahx = NCCCCCC(=O)O

T1: A199 N-terminal neo-epitope peptide AGQPLQ-Acp-C (SEQ ID NO:51) conjugated to BSA (human, not fully specified (residue 8); printed as AGQPLQ-Acp-C; also: C-terminal Cys conjugated to BSA carrier)
T1 construct: BSA carrier; also called A199-BSA peptide
T1 peptide: AGQPLQ[Ahx]C

B1: 28F2, recombinant IgG2c antibody (antibody, V domains shown)
VH: QIQLVQSGPDLKKPGETVKISCKASGYTFTNYAMHWMKQAPGKALKWMGWINTYTGEPTFADDFKGRFAFSLETSASTAYLQINSLKNEDMATYFCAREGYYDRSHYFDYWGQGTTLTVSS
VL: DVLMTQTPLSLPVSLGDQASISCRSSLSLVHGDGNTYLEWYLQKPGQSPKLLIYKVSNRFSGVPDRFSGSGSGTDFTLKISRVEAEDLGVYYCLQGSHIPFTFGSGTKLEIK
B2: 23D5, recombinant IgG2c antibody (antibody, V domains shown)
VH: EVQLVESGGGLVKPGGSLKLSCSASGFTFSRYAMSWVRQSPEKRLEWVAEINSGGSYSFYSDTVTGRFTISRDNAKNTLFLEMSSLRSEDTAIYYCARQLSGTDYYGTDYWGQGTSVTVSS
VL: B1 VL with L15H, L27Q, V30L, H31Y, G32S, D33N, L94F, I99V, F101Y, S105G
B3: 17G4, recombinant IgG2c antibody (antibody, V domains shown)
VH: B2 VH with S101T
VL: B1 VL with L15H, L27Q, V30L, H31Y, G32S, D33N, L94F, I99V, F101Y, S105G
B4: 7C7, recombinant IgG2c antibody (antibody, V domains shown)
VH: EVQLVESGGGLVKPGGSLRLSCAASGFTFSSFAMSWVRQSPERRLEWVAEISRGGGYAFYSDTVTGRFTISRDNARNTLFLEMGSLRSEDTAMYYCSRQLTGTDYYAMDYWGQGTSVTVSS
VL: DVLLTQTPLSLFVSLGDQASISCRSSQSIVYTNGNTYLEWYLQKPGQSPKLLIYKVSNRFSGVPDRFSGSGSGTDFTLKISRVEAEDLGVYYCFQGSQVPYTFGGGTKLELK
B5: 7B10, recombinant IgG2c antibody (antibody, V domains shown)
VH: AVQLVESGGGLVKPGRSLKLSCAASGFTFSSYAMSWVRQFPDKRLDWVAEISSGGGSTNYLDTVTGRFTISRDNAKNTLYLEMNSLRSEDTAMYYCARQLVGTDYYGTDYWGQGTSVTVSS
VL: B4 VL with L4M, F12P, S28N, T32S, Q98H, L111I
notes: also called 7610

Molecular target: T1, A199 N-terminal neo-epitope peptide …
Assay: direct ELISA, second protocol; proteins coated at 0.1 uM, BSA peptides at 1 ug/ml; antibody in 3-fold dilutions from 3000 ng/ml; blank reduced OD 450 nm
Procedure: The screening was performed according to standard ELISA protocols. Briefly, 1 μg/ml solutions of BSA-conjugated neo-epitope peptides, recombinant C-terminal ApoE fragment, negative control peptide and full-length ApoE were prepared by dilution in PBS. 50 μl/well were added to an ELISA half-area 96 well microtiter plate, the plate was sealed with adhesive sealer and incubated over night at 4° C. After discarding the solution, the plates were blocked with 150 μl/well of protein-free blocking solution (Pierce) for 1 h at room temperature with shake (900 rpm). The plates were washed four times with washing buffer containing 0.28 mM NaH₂PO₄, 2.5 mM Na₂HPO₄, 150 mM NaCl, 0.1% TWEEN®-20 and 0.0075% Kathon CG. […] An anti-ApoE C-terminal antibody was used as a reference antibody (ApoE E-8 mouse monoclonal, cat. no. sc-393302; Santa Cruz Biotechnology). 50 μl/well were added into the ELISA plates and incubated for 2 h at room temperature with shake (900 rpm). The plates were washed four times as described previously. […] After another wash (as described previously), 50 μl/well of K-Blue® aqueous substrate (Neogen) were added, and the reaction was stopped after 5-15 min with 50 μl/well of 0.5 M […]. The optical density at 450 nm was read using an ELISA reader (Tecan). The optical density was plotted against the antibody concentration to generate concentration-response curves (FIG. 16).
These were added in the same molarity (0.1 μM) to provide an equal number of molecules available for binding by the antibodies (BSA-coupled peptides were coated at 1 μg/ml as before).
With B1 the “EC50 (read off the curve)” value was about 0.1 µg/mL.

These binders were tested against T2, recombinant C-terminal ApoE fragment G200-HIS (ApoE-G200-H299-10xHIS) (human, UniProt P02649 218-317) (assay: SPR (Biacore 8K), G200-HIS amine-coupled on CM5, antibody as analyte, bivalent analyte fit (KD1)).
T2 construct: also called G200-HIS fragment
T2 sequence (P02649 other isoform, or with tags, fused parts or gaps limits assumed): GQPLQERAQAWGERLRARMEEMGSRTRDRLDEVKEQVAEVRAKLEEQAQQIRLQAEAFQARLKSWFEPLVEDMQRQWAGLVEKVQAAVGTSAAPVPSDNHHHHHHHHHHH
In the case of B2, the Kd is reported as 299 nM.
B3 gave a Kd of 141 nM.
Work on B4 yielded a Kd of 417 nM.
With B1 the Kd was 9830 nM.
With B5 the Kd was 330 nM.
